Data published in patent US20220259593A1, “CONTROL OF MAMMALIAN GENE DOSAGE USING CRISPR” (The Regents of the University of California, priority 2019, published 2022).

Test system: K562 CRISPRi cells
Test: Constant region variant library pooled growth screen, K562
Format: cell-based, human
Conditions: sgRNA constant region variants
Outline: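 Pooled library transduced into K562 CRISPRi cells in duplicate, puromycin-selected, grown at >2000× coverage and sampled after 4 to 8 days. Phenotypes per targeting sequence:constant region pair were normalized to the unmodified-scaffold pairing to give relative activity.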

[1] = activity relative to the unmodified constant region cr995
[2] = activity relative to the original, un-modified constant region cr995

Row | Molecule | Mean relative activity [1] | Mean relative activity [2]
1 | cr429 (nucleic acid, listed as DNA, chemistry not fully specified) guide: GTTTAAGAGCTAAGCTGGAAACAGCATAGCAAGTTTAAATAAGAATATTTCGTTATCAACTTGAAAAAGTGGCAACGAGTCGTTGCT | 0.196 | 
2 | cr732 (nucleic acid, listed as DNA, chemistry not fully specified) guide: GTTTAAGAGCTAAGCTGGAAACAGCATAGCAAGTTTAAATAGGGCTAGTCCGGTATCAACTTGAAAAAGTCGCACCGAGTCGGTGCT | 0.1926 | 
3 | cr347 (nucleic acid, listed as DNA, chemistry not fully specified) guide: GTTTAAGAGCTAAGCTGGAAACAGCATAGCAAGCTTAAATAAGCCTAGTGCGTTATCAACTTGAAAAAGTGGCACCGAGTCGGTGCT | 0.1915 | 
4 | cr760 (nucleic acid, listed as DNA, chemistry not fully specified) guide: GTTTAAGAGCTAAGCTGGAAACAGCATAGCAGGTTTAAATCAGGCTAGTCCGTTATCAACTTGATAAAGTGGCACCGAGTCGGTGCT | 0.1909 | 
5 | cr294 (nucleic acid, listed as DNA, chemistry not fully specified) guide: GTTTAAGAGCTAAGCTGGAAACAGCATAGCAAGTTTAAATAAGAATATTTCGTTATCAACTTGAAAAAGTGGCACCGAGTCGGTGCT | 0.1883 | 
6 | cr090 (nucleic acid, listed as DNA, chemistry not fully specified) guide: GTTTTATAGCTAAGCTGGAAACAGCATAGCAAGTTTAAATAAGGCTAGTCCGTTATCAACTTGAAAAAGTGGCACCGAGTCGGTGCT | 0.1865 | 
7 | cr900 (nucleic acid, listed as DNA, chemistry not fully specified) guide: GTTTAAGAGCTAAGCTGGAAACAGCATAGCAAGTTGAAATAAGGCTAGTCCGTTATCAACTTGAAAAAGTGGCACCGAGTCGGTGCT | 0.1846 | 
8 | cr605 (nucleic acid, listed as DNA, chemistry not fully specified) guide: GTTTAAGAGCTAAGCTGGAAACAGCATAGCAAGTTTAAATAAGGATATTCCGTTATCAACTTGAAAAAGTGGCACCCAGTGGGTGCT | 0.1839 | 
9 | cr452 (nucleic acid, listed as DNA, chemistry not fully specified) guide: GTTTAAGAGCTAAGCTGGAAACAGCATAGCAAATTTAAATAAGGCTAGTCCGTTATAAACTTGAAAAAGTGGCACCGAGTCGGTGCT | 0.1813 | 
10 | cr311 (nucleic acid, listed as DNA, chemistry not fully specified) guide: GTTTAAGAGCTAAGCTGGAAACAGCATAGCAAGTTTAAATAAGGCTTGTCCGTTATATACTTGAAAAAGTGGCACCGAGTCGGTGCT | 0.179 | 
11 | cr812 (nucleic acid, listed as DNA, chemistry not fully specified) guide: GTTTAAGAGCTAAGCTGGAAACAGCATAGCAAGTTTAAATAAGGCTACTCCGTTATCAACTTGAAAAAGTGGCACCGAGTCGGTGCT | 0.1766 | 
12 | cr979 (nucleic acid, listed as DNA, chemistry not fully specified) guide: GTTTAAGAGCTAAGCTGGAAACAGCATAGCAAGTTTAAATAAGGCTAGTCCGGTATCTACTTGAAAAAGTGGCACCGAGTCGGTGCT | 0.1765 | 
13 | cr185 (nucleic acid, listed as DNA, chemistry not fully specified) guide: GTTTAAGAGCTAAGCTGGAAACAGCATAGCAAGTTTAAATAAGGCTAGTCCGTTATCAACTTGAAAAAGTGGCACCGAGTAGGTGCT | 0.1755 | 
14 | cr047 (nucleic acid, listed as DNA, chemistry not fully specified) guide: GTTTTAGTGCTAAGCTGGAAACAGCATAGCAAGTTTAAATAAGGCTAGTCCGTTATCAACTTGAAAAAGTGGCACCGAGTCGGTGCT | 0.1686 | 
15 | cr476 (nucleic acid, listed as DNA, chemistry not fully specified) guide: GTTTAAGAGCTAAGCTGGAAACAGCATAGCAAGTTTAAATAAGGCTAGTCCGTTATCAACTTGAAAAAGTGCGACCGAGTCGGTCGT |  | 1.039
16 | cr029 (nucleic acid, listed as DNA, chemistry not fully specified) guide: GTTTCAGGGCTAAGCTGGAAACAGCATAGCAAGTTTAAATAAGGCTAGTCCGTTATCAACTTGAAAAAGTGGCACCGAGTCGGTGCT | 0.1663 | 
17 | cr826 (nucleic acid, listed as DNA, chemistry not fully specified) guide: GTTTAAGAGCTAAGCTGGAAACAGCATAGCAATTTTAAATAAGGCTAGCCCGTTTTCAACTTGAAAAAGTGGCACCGAGTCGGTGCT | 0.1633 | 
18 | cr447 (nucleic acid, listed as DNA, chemistry not fully specified) guide: GTTTAAGAGCTAAGCTGGAAACAGCATAGCAAGCTTAAATAAGGCTAGTCCGTTATCAACTTGAAAAAGTGGCACCAAGTTGGTGCT | 0.1616 | 
19 | cr544 (nucleic acid, listed as DNA, chemistry not fully specified) guide: GTTTAAGAGCTAAGCTGGAAACAGCATAGCAACTTTAAATAAGGCTAGTCCGTTATCAACTCGAAAGAGTGGCACCGAGTCGGTGCT | 0.1605 | 
20 | cr230 (nucleic acid, listed as DNA, chemistry not fully specified) guide: GTTTAAGAGCTAAGCTGGAAACAGCATAACAAGTTTAAATAAGGCTAGTCCATTATCAACTTGAACAAGTGGCACCGAGTCGGTGCT | 0.1598 | 
21 | cr618 (nucleic acid, listed as DNA, chemistry not fully specified) guide: GTTTAAGAGCTAAGCTGGAAACAGCATAGCAAGTTTAAGTAAGGCTAGTCCGTTATCAACTTGAAAAAGTGGCACCGAGTCGGTGCT | 0.1571 | 
22 | cr683 (nucleic acid, listed as DNA, chemistry not fully specified) guide: GTTTAAGAGCTAAGCTGGAAACAGCATAGCAAGTTTAAATAAGGCTAGTTCGTTATGAACTTGAAAAAGTGGCACCGAGTCGGTGCT | 0.1568 | 
23 | cr063 (nucleic acid, listed as DNA, chemistry not fully specified) guide: ATTTTAGAGCTAAGCTGGAAACAGCATAGCAAGTTTAAATAAGGCTAGTCCGTTATCAACTTGAAAAAGTGGCACCGAGTCGGTGCT | 0.1565 | 
24 | cr221 (nucleic acid, listed as DNA, chemistry not fully specified) guide: GTTTAAGAGCTAAGCTGGAAACAGCATAGCAAATTTAAATAAGGCTAGTCCGTTATGAACTTGAGAAAGTGGCACCGAGTCGGTGCT | 0.1553 | 
25 | cr075 (nucleic acid, listed as DNA, chemistry not fully specified) guide: GTTTCATAGCTAAGCTGGAAACAGCATAGCAAGTTTAAATAAGGCTAGTCCGTTATCAACTTGAAAAAGTGGCACCGAGTCGGTGCT | 0.1521 | 
26 | cr502 (nucleic acid, listed as DNA, chemistry not fully specified) guide: GTTTAAGAGCTAAGCTGGAAACAGCATAGCAAGTTTAAATAAGGCTAGTCCGTTATCAACTTGAAAAAGTGGCACCGAGTCGCTGCT | 0.1485 | 
27 | cr229 (nucleic acid, listed as DNA, chemistry not fully specified) guide: GTTTAAGAGCTAAGCTGGAAACAGCATAGCAAGTTTAAATACGGCTAGTCCGTTATCAACTTGAAAAAGTGGCACCGAGTCGGTGCT | 0.1478 | 
28 | cr228 (nucleic acid, listed as DNA, chemistry not fully specified) guide: GTTTAAGAGCTAAGCTGGAAACAGCATAGCAAGTTTAAATAAGGGTAGTCCGTTATCAACTTGAAAAAGTGGCACCGAGTCGGTGCT | 0.1424 | 
29 | cr808 (nucleic acid, listed as DNA, chemistry not fully specified) guide: GTTTAAGAGCTAAGCTGGAAACAGCATAGCAAGTTTAAATAAAGCTAGTCTGTTATCAAATTGAAAAATTGTCACCGAGTCGGTGAT | 0.1417 | 
30 | cr691 (nucleic acid, listed as DNA, chemistry not fully specified) guide: GTTTAAGAGCTAAGCTGGAAACAGCATAGCAAGTTTAAATAAGGCTAGTCCGTTATCAACTTGAAAAAGTGGGCCCGAGTCGGGCCT |  | 1.038
